The source of these data is patent US20200377590A1 (Hoffmann-La Roche, published 2020).

The labels stand for the following.
T1: CD81 (UniProt P60033 1-236, limits assumed)
T1 construct: whole, on cells; also called CD81 receptor
T1 sequence (looked up): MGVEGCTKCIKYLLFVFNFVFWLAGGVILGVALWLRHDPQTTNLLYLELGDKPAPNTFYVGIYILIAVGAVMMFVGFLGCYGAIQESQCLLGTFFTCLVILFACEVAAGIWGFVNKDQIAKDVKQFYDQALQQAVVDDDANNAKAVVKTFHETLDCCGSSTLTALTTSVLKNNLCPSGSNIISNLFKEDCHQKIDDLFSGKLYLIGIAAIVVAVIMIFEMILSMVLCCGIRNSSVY

B1: CD81K04 HC K04_JA-13-hVH_1_3 / LC JA_GG-08-hVK_4_1 (antibody, V domains shown)
VH: QVQLVQSGAEVKKPGASVKVSCKASGYTFSSSWMNWVRQAPGQRLEWMGRIYSGDGDAIYNGKFKGRVTITRDTSASTAYMELSSLRSEDTAVYYCAREGKTGDLLLRSWGQGTLVTVSS
VL: DIVMTQSPDSLAVSLGERATINCKSSKSVSTSIYSYMHWYQQKPGQPPKLLIKYASYLESGVPDRFSGSGSGTDFTLTISSLQAEDVAVYYCEHSREFPFTFGQGTKLEIK
notes: human constant region
B2: CD81K04 HC GG-02-hVH_1_69 / LC GG-06-hVK_1_39 (antibody, V domains shown)
VH: B1 VH with A16S, R44G, G62Q, K65Q, R72A, T74E, A76T
VL: DIQMTQSPSSLSASVGDRVTITCRASKSVSTSIYSYLNWYQQKPGKAPKLLIYYASYLQSGVPSRFSGSGSGTDFTLTISSLQPEDFATYYCQHSREFPYTFGQGTKLEIK
notes: human constant region
B3: CD81K04 HC GG-02-hVH_1_69 / LC JA_GG-07-hVK_7_3 (antibody, V domains shown)
VH: B1 VH with A16S, R44G, G62Q, K65Q, R72A, T74E, A76T
VL: DIVLTQSPASLAVSPGQRATITCRASKSVSTSIYSYMHWYQQKPGQPPKLLIKYASNKDTGVPARFSGSGSGTDFTLTINPVEANDAANYYCLHSREFPYTFGQGTKLEIK
notes: human constant region
B4: CD81K04 HC GG-02-hVH_1_69 / LC GG-05-hVK_3_11 (antibody, V domains shown)
VH: B1 VH with A16S, R44G, G62Q, K65Q, R72A, T74E, A76T
VL: EIVLTQSPATLSLSPGERATLSCRASKSVSTSIYSYLHWYQQKPGQAPRLLIYYASNRETGIPARFSGSGSGTDFTLTISSLEPEDFAVYYCQHSREFPFTFGQGTKLEIK
notes: human constant region
B5: CD81K04 HC GG-02-hVH_1_69 / LC CD81K04 (antibody, V domains shown)
VH: B1 VH with A16S, R44G, G62Q, K65Q, R72A, T74E, A76T
VL: DIVLTQSPASLSVSLGQRATISCRASKSVSTSIYSYMHWYQQKPGQPPKLLIKYASYLESGVPARFSGSGSGTDFTLNIHPVEEEDAATYYCEHSREFPFTFGTGTKLEIK
notes: human constant region
B6: CD81K04 HC JA_GG-16-hVH_1_3 / LC JA_GG-07-hVK_7_3 (antibody, V domains shown)
VH: B1 VH with R44G, R72A
VL: B3 VL
notes: human constant region
B7: CD81K04 HC GG-03-hVH_1_69 / LC GG-05-hVK_3_11 (antibody, V domains shown)
VH: B1 VH with A16S, R44G, N61A, G62Q, K65Q, R72A, T74E, A76T
VL: B4 VL
notes: human constant region
B8: CD81K04 HC GG-05-hVH_1_18 / LC JA_GG-07-hVK_7_3 (antibody, V domains shown)
VH: B1 VH with R44G, N61A, G62Q, F64L, K65Q, I70M, R72T, A76T, S84R, E89D
VL: B3 VL
notes: human constant region
B9: CD81K04 HC JA_GG-14-hVH_1_69 / LC GG-06-hVK_1_39 (antibody, V domains shown)
VH: B1 VH with A16S, R44G, R67K, V68A, R72A, T74E, A76T
VL: B2 VL
notes: human constant region
B10: CD81K04 HC JA_GG-14-hVH_1_3 / LC GG-06-hVK_1_39 (antibody, V domains shown)
VH: B1 VH with R44G, V68A, R72A
VL: B2 VL
notes: human constant region
B11: CD81K04 HC K04_JA_GG-17-hVH_1_3 / LC JA_GG-08-hVK_4_1 (antibody, V domains shown)
VH: B1 VH with A58T, N61S, G62Q, K65Q, R72A
VL: B1 VL
notes: human constant region
B12: CD81K04 HC JA_GG-13-hVH_1_69 / LC GG-05-hVK_3_11 (antibody, V domains shown)
VH: B1 VH with A16S, Y27G, R44G, N61A, G62Q, K65Q, R72A, T74E, A76T
VL: B4 VL
notes: human constant region
B13: CD81K04 HC JA_GG-15-hVH_1_3 / LC GG-06-hVK_1_39 (antibody, V domains shown)
VH: B1 VH with R72A
VL: B2 VL
notes: human constant region
B14: CD81K04 HC K04_JA-13-hVH_1_3 / LC JA_GG-10-hVK_4_1 (antibody, V domains shown)
VH: B1 VH
VL: B1 VL with K24R, S25A
notes: human constant region
B15: CD81K04 HC JA_GG-14-hVH_1_3 / LC GG-05-hVK_3_11 (antibody, V domains shown)
VH: B1 VH with R44G, V68A, R72A
VL: B4 VL
notes: human constant region
B16: CD81K04 HC K04_JA_GG-17-hVH_1_3 / LC JA_GG-07-hVK_7_3 (antibody, V domains shown)
VH: B1 VH with A58T, N61S, G62Q, K65Q, R72A
VL: B3 VL
notes: human constant region
B17: CD81K04 HC K04_JA_GG-17-hVH_1_3 / LC GG-04-hVK_4_1 (antibody, V domains shown)
VH: B1 VH with A58T, N61S, G62Q, K65Q, R72A
VL: B1 VL with M37L, H38A, K53Y, Y57T, L58R, E93Q, F100Y
notes: human constant region
B18: CD81K04 HC GG-04-hVH_1_69 / LC GG-05-hVK_3_11 (antibody, V domains shown)
VH: B1 VH with A16S, R44G, G62Q, K65Q, V68A, R72A, T74E, A76T
VL: B4 VL
notes: human constant region
B19: CD81K04 HC GG-05-hVH_1_18 / LC GG-06-hVK_1_39 (antibody, V domains shown)
VH: B1 VH with R44G, N61A, G62Q, F64L, K65Q, I70M, R72T, A76T, S84R, E89D
VL: B2 VL
notes: human constant region
B20: CD81K04 HC K04_JA-13-hVH_1_3 / LC GG-05-hVK_3_11 (antibody, V domains shown)
VH: B1 VH
VL: B4 VL
notes: human constant region
B21: CD81K04 HC JA_GG-15-hVH_1_3 / LC GG-05-hVK_3_11 (antibody, V domains shown)
VH: B1 VH with R72A
VL: B4 VL
notes: human constant region
B22: CD81K04 HC GG-03-hVH_1_69 / LC JA_GG-07-hVK_7_3 (antibody, V domains shown)
VH: B1 VH with A16S, R44G, N61A, G62Q, K65Q, R72A, T74E, A76T
VL: B3 VL
notes: human constant region
B23: CD81K04 HC K04_JA_GG-17-hVH_1_3 / LC JA_GG-09-hVK_4_1 (antibody, V domains shown)
VH: B1 VH with A58T, N61S, G62Q, K65Q, R72A
VL: B1 VL with Y57T, L58R
notes: human constant region
B24: CD81K04 HC GG-03-hVH_1_69 / LC GG-06-hVK_1_39 (antibody, V domains shown)
VH: B1 VH with A16S, R44G, N61A, G62Q, K65Q, R72A, T74E, A76T
VL: B2 VL
notes: human constant region
B25: CD81K04 HC JA_GG-13-hVH_1_69 / LC GG-06-hVK_1_39 (antibody, V domains shown)
VH: B1 VH with A16S, Y27G, R44G, N61A, G62Q, K65Q, R72A, T74E, A76T
VL: B2 VL
notes: human constant region
B26: CD81K04 HC K04_JA-13-hVH_1_3 / LC JA_GG-07-hVK_7_3 (antibody, V domains shown)
VH: B1 VH
VL: B3 VL
notes: human constant region
B27: CD81K04 HC K04_JA-13-hVH_1_3 / LC GG-06-hVK_1_39 (antibody, V domains shown)
VH: B1 VH
VL: B2 VL
notes: human constant region
B28: CD81K04 HC JA_GG-16-hVH_1_3 / LC GG-06-hVK_1_39 (antibody, V domains shown)
VH: B1 VH with R44G, R72A
VL: B2 VL
notes: human constant region
B29: CD81K04 HC K04_JA_GG-17-hVH_1_3 / LC JA_GG-10-hVK_4_1 (antibody, V domains shown)
VH: B1 VH with A58T, N61S, G62Q, K65Q, R72A
VL: B1 VL with K24R, S25A
notes: human constant region
B30: CD81K04 HC JA_GG-14-hVH_1_69 / LC GG-05-hVK_3_11 (antibody, V domains shown)
VH: B1 VH with A16S, R44G, R67K, V68A, R72A, T74E, A76T
VL: B4 VL
notes: human constant region
B31: CD81K04 HC GG-04-hVH_1_69 / LC JA_GG-07-hVK_7_3 (antibody, V domains shown)
VH: B1 VH with A16S, R44G, G62Q, K65Q, V68A, R72A, T74E, A76T
VL: B3 VL
notes: human constant region
B32: CD81K04 HC GG-04-hVH_1_69 / LC GG-06-hVK_1_39 (antibody, V domains shown)
VH: B1 VH with A16S, R44G, G62Q, K65Q, V68A, R72A, T74E, A76T
VL: B2 VL
notes: human constant region
B33: CD81K04 HC JA_GG-14-hVH_1_69-GA / LC GG-05-hVK_3_11 (antibody, V domains shown)
VH: B1 VH with A16S, R44G, R67K, V68A, R72A, T74E, A76T
VL: B4 VL
notes: human constant region
B34: CD81K04 HC K04_JA-13-hVH_1_3 / LC JA_GG-09-hVK_4_1 (antibody, V domains shown)
VH: B1 VH
VL: B1 VL with Y57T, L58R
notes: human constant region
B35: CD81K04 HC JA_GG-14-hVH_1_3 / LC JA_GG-07-hVK_7_3 (antibody, V domains shown)
VH: B1 VH with R44G, V68A, R72A
VL: B3 VL
notes: human constant region
B36: CD81K04 HC JA_GG-15-hVH_1_3 / LC JA_GG-07-hVK_7_3 (antibody, V domains shown)
VH: B1 VH with R72A
VL: B3 VL
notes: human constant region
B37: CD81K04 HC JA_GG-13-hVH_1_69 / LC JA_GG-07-hVK_7_3 (antibody, V domains shown)
VH: B1 VH with A16S, Y27G, R44G, N61A, G62Q, K65Q, R72A, T74E, A76T
VL: B3 VL
notes: human constant region
B38: CD81K04 HC JA_GG-14-hVH_1_69-GA / LC GG-06-hVK_1_39 (antibody, V domains shown)
VH: B1 VH with A16S, R44G, R67K, V68A, R72A, T74E, A76T
VL: B2 VL
notes: human constant region
B39: CD81K04 HC K04_JA_GG-17-hVH_1_3 / LC GG-02-hVK_4_1 (antibody, V domains shown)
VH: B1 VH with A58T, N61S, G62Q, K65Q, R72A
VL: B1 VL with K53Y, L58R, E93Q
notes: human constant region
B40: CD81K04 HC JA_GG-16-hVH_1_3 / LC GG-05-hVK_3_11 (antibody, V domains shown)
VH: B1 VH with R44G, R72A
VL: B4 VL
notes: human constant region
B41: CD81K04 HC K04_JA_GG-17-hVH_1_3 / LC GG-06-hVK_1_39 (antibody, V domains shown)
VH: B1 VH with A58T, N61S, G62Q, K65Q, R72A
VL: B2 VL
notes: human constant region

Numbering of substitutions follows the chain as printed.

This experiment deals with T1, CD81. Kind of experiment: cell ELISA.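 Note: antibody binding to HuH7 cells expressing CD81 versus a CD81-negative HuH7 control line, bound antibody detected by secondary reagent, absorbance at 450 nm with 620 nm reference.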
B1 returned an ELISA data of 0.985. Then B2, with 0.08; and B3, with 0.13. To B4 belongs 0.229; to B5, 0.918; to B6, 0.161. B7 registered an ELISA data of 0.204. To B8 belongs 0.14; to B9, 0.091.

B10 yielded an ELISA data of 0.091. Then B11, with 0.941. To B12 belongs 0.228; to B13, 0.079; to B14, 0.861. Then B15, with 0.696; and B16, with 0.219.

B17: the ELISA data was 0.189. Then B18, with 0.352; and B19, with 0.149; and B20, with 0.56. Then B21, with 0.699. In turn, B22 showed an ELISA data of 0.091. For B23, the ELISA data amounted to 0.911. B24 had an ELISA data of 0.064. In turn, B25 registered an ELISA data of 0.119. Then B26, with 0.255; and B27, with 0.064; and B28, with 0.08. In turn, B29 came in with an ELISA data of 0.855. To B30 belongs 0.403; to B31, 0.12. In turn, B32 yielded an ELISA data of 0.067.

With B33, the ELISA data was found to be 0.376. B34 had an ELISA data of 0.864. To B35 belongs 0.154.

As to B36, the ELISA data was found to be 0.262. Molecule B37 displayed an ELISA data of 0.087.

Turning to B38, the ELISA data is 0.066. B39 registered an ELISA data of 0.709.

Consider B40, for which the ELISA data worked out at 0.631.

In turn, B41 had an ELISA data of 0.123.
